Measured values from PMC12501005.

T1: AflR-DBD (15-79) (Aspergillus flavus, UniProt P41765 15-79)
T1 sequence: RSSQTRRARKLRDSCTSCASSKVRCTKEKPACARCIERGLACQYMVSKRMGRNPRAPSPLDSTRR

T2: AflR 28-57 (Aspergillus flavus, UniProt P41765 28-57)
T2 chain: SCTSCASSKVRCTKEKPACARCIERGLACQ

T3: AflR 15-57 (Aspergillus flavus, UniProt P41765 15-57)
T3 chain: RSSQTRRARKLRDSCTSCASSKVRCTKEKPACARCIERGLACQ

T4: AflR 15-69 (Aspergillus flavus, UniProt P41765 15-69)
T4 sequence: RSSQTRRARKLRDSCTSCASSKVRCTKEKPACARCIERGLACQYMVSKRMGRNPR

T5: AflR 8-98 (Aspergillus flavus, UniProt P41765 8-98)
T5 sequence: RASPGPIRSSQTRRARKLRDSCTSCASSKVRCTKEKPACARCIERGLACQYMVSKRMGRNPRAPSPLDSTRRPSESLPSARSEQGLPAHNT

T6: AflR 26-79 (Aspergillus flavus, UniProt P41765 26-79)
T6 sequence: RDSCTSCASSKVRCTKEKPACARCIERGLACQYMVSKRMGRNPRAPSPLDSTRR


Key:
[1] = target: T1, AflR-DBD (15-79); test: EMSA
[2] = target: T2, AflR 28-57; test: EMSA
[3] = target: T3, AflR 15-57; test: EMSA
[4] = target: T4, AflR 15-69; test: FCS
[5] = target: T1, AflR-DBD (15-79); test: FCS
[6] = target: T5, AflR 8-98; test: FCS
[7] = target: T6, AflR 26-79; test: FCS

Binder | binding result [1] | binding result [2] | binding result [3] | further results
vbs inverted repeat (GCG to CCG) (dsDNA) DNA 1: ACCGACTCTCGGACACCGAGGCAGACCG DNA 2: CGGTCTGCCTCGGTGTCCGAGAGTCGGT | binds |  |  | 
norA (dsDNA) DNA 1: ACCGGGCTTTCGGAAAGCGATCAGCTTGT DNA 2: ACAAGCTGATCGCTTTCCGAAAGCCCGGT |  | no binding | no binding | 
vbs (dsDNA) DNA 1: ACCGACTCTCGGACAGCGAGGCAGACCG DNA 2: CGGTCTGCCTCGCTGTCCGAGAGTCGGT |  | no binding | no binding | 
norA inverted repeat (GCG to CCG) (dsDNA) DNA 1: ACCGGGCTTTCGGAAACCGATCAGCTTGT DNA 2: ACAAGCTGATCGGTTTCCGAAAGCCCGGT | binds |  |  | 
ver1 (dsDNA) DNA 1: TCAGATATTTCGGTCTCCGAGGAAAGAT DNA 2: ATCTTTCCTCGGAGACCGAAATATCTGA |  | no binding | no binding | Kd [4]: 1510 ± 250 nM; Kd [5]: 401 ± 54.5 nM; Kd [6]: 409 ± 137 nM; Kd [7]: 4.02 ± 0.594 µM
